Our source for the Kd values is paper PMC10204415 (2023).

In assay [1] the target is T1, MBP-ARHGEF11 (mouse ARHGEF11 residues 1334–1406, except for deleted residues 1352–1394 by alternative … (mouse, UniProt Q68FM7 1334-1406, deleted residues 1352–1394 by alternative splicing)). In words: replicate 1; without BSA blocking.
Assay [2] deals with T1, MBP-ARHGEF11 (mouse ARHGEF11 residues …). The experiment in a line: replicate 2; without BSA blocking.
Assay [3] has the same target. In words: replicate 3; without BSA blocking.
Assay [4] shares this target. The experiment in a line: replicate 1; GSA-immobilized MBP-ARHGEF11, CDNB assay.
For assay [5] the target is unchanged. The experiment in a line: replicate 2; GSA-immobilized MBP-ARHGEF11, CDNB assay.
For assay [6] the target is unchanged. In words: replicate 3; GSA-immobilized MBP-ARHGEF11, CDNB assay.

T1 sequence (Q68FM7 entry or part of it deleted residues 1352–1394 by alternative splicing): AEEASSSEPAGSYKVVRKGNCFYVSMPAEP

B1: GST-ZO1-ZU5 (mouse ZO-1 ZU5 domain, residues 1624–1745) (domain or fragment)
chain: EDGHTVVATARGIFNSNGGVLSSIETGVSIIIPQGAIPEGIEQEIYFKVCRDNSILPPLDKEKGETLLSPLVMCGPHGLKFLKPVELRLPHCDPKTWQNKCLPGDPNYLVGANCVSVLIDHF
A word on the Kd: it is a measure of binding affinity in units of concentration. A lower Kd goes with higher affinity. Turning to B1, the Kd in assay [1] came to 8.7 µM; in assay [2], 10.9 µM; in assay [3], 14.7 µM; in assay [4], 37.3 µM; in assay [5], 28 µM; in assay [6], 56 µM.
